# Test results reported in US20100297003A1 (TECNOGEN S C P A, published 2010).
# T1: Tn (A(1-4)-D) fragment of human tenascin (human, UniProt P24821 1076-1711, limits assumed)
# T1 construct: domain: A(1-4)-D
# T1 sequence (looked up): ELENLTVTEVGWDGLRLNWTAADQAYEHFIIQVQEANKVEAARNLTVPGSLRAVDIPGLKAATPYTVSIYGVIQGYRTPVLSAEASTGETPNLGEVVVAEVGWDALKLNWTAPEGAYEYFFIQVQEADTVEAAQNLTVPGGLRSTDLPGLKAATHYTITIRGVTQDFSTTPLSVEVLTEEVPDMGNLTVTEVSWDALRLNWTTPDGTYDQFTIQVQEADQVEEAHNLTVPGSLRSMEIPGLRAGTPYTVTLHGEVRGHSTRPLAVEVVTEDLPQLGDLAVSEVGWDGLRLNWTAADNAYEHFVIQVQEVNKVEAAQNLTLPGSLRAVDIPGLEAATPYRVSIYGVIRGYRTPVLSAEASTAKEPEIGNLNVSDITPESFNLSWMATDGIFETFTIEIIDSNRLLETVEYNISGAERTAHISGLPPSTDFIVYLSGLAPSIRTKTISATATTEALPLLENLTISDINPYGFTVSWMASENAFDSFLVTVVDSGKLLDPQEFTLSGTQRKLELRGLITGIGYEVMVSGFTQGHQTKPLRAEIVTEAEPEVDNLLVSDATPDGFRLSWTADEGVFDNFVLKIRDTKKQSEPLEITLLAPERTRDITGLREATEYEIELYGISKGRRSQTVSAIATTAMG
# T2: EGF-like fragment of human tenascin (human, UniProt P24821 174-621, limits assumed)
# T2 construct: domain: EGF-like
# T2 sequence (looked up): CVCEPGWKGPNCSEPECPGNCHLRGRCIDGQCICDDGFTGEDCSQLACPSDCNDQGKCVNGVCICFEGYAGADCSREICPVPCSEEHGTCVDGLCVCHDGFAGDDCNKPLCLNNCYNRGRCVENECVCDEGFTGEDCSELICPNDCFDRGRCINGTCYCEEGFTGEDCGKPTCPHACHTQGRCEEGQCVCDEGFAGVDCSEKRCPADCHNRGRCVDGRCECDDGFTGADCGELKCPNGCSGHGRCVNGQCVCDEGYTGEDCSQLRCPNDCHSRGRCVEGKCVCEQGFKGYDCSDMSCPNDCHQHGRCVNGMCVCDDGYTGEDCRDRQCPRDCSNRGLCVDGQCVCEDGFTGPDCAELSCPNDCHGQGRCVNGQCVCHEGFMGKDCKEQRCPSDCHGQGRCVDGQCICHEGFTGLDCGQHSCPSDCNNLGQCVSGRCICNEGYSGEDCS
# B1: anti-human tenascin monoclonal antibody ST2485 (antibody, V domains shown)
# VH: EVQLQQSGPELVKPGASMKISCKASGYSFTGYTMNWVKQSHGKNLEWIGLINPHNGGTTYNQKFKGKATLTVDKSSNTAYMELLSLTSEDSAVYYCTRPGGYYWFFDVWGAGTTVTVSS
# VL: QIVLSQSPAILSASPGEKVTMTCRANSSVRFMHWYQQKPGSSPKPWIYATSNLASGVPARFSGSGSGTSYSVTISRVEAEDAATYYCQQWSSNSPRTFGGGTKVEIRR
# modifications: part of the light chain is N-glycosylated (glycosylated and non-glycosylated variants; site not numbered)
# notes: Mouse immunoglobulin of IgG1/k isotype from hybridoma cST2485
# B2: biotinylated ST2485 (antibody, V domains shown)
# VH: B1 VH
# VL: B1 VL
# modifications: biotinylated, 8.3 biotins/molecule of antibody (sites not given)
# What was measured:
# human tenascin C (human) [1] = molecular target: human tenascin C (human) (UniProt P24821); assay: ELISA on tenascin C, biotinylated against non-biotinylated antibody
# [2] = molecular target: T1, Tn (A(1-4)-D) fragment of human tenascin; assay: ELISA on Tn A(1-4)-D fragment, biotinylated against non-biotinylated antibody
# human tenascin C (human) [3] = molecular target: human tenascin C (human) (UniProt P24821); assay: BIAcore on whole tenascin
# human tenascin C (human) [4] = molecular target: human tenascin C (human) (UniProt P24821); assay: BIAcore on tenascin C
# [5] = molecular target: T1, Tn (A(1-4)-D) fragment of human tenascin; assay: BIAcore on Tn (A1-4-D) fragment
# [6] = molecular target: T1, Tn (A(1-4)-D) fragment of human tenascin; assay: competitive ELISA on plates coated with Tn A(1-4)-D fragment; unlabelled antibody at increasing concentration against biotinylated BC-2 at a fixed concentration, HRP-streptavidin/TMB
# Procedure: The biotinylated antibody BC-2, at a concentration established in preliminary experiments, is dispensed with non-biotinylated BC-2 (curve 1) or ST2485 (curve 2) in increasing concentrations on plates sensitised with the antigen tenascin C (a), or Tn A₍₁₋₄₎-D fragment (b). The binding of the biotinylated antibody is measured after addition of HRP-streptavidin and the related chromogenic substrate TMB.
# [7] = molecular target: T1, Tn (A(1-4)-D) fragment of human tenascin; assay: ELISA on plates coated with Tn A(1-4)-D fragment, reference BC-2
# Procedure: The immunoreactivity of ST2485 was evaluated in comparison with BC-2 by ELISA assay on tenascin C and on the Tn A₍₁₋₄₎-D fragment, as shown in FIG. 7. The antibodies ST2485 and BC-2 and the normal mouse immunoglobulins (nMIgG) were dispensed at increasing concentrations on plates sensitised with tenascin C (a) or with the Tn A₍₁₋₄₎-D fragment (b); the addition of the secondary antimouse antibody labelled with alkaline phosphatase and the related chromogenic substrate (pNPP) made it possible to determine the dose-response curve of the antibodies. The amount of ST2485 necessary to obtain 1.0 OD is approximately 13 times less than the amount of BC-2 on whole tenascin (a), and approximately 10 times less than the amount of BC-2 on the Tn (A1-4-D) fragment (b).
# human tenascin C (human) [8] = molecular target: human tenascin C (human) (UniProt P24821); assay: competitive ELISA on tenascin C; competitor biotinylated BC-2 at fixed concentration
# human tenascin C (human) [9] = molecular target: human tenascin C (human) (UniProt P24821); assay: ELISA on plates coated with tenascin C, alkaline phosphatase anti-mouse antibody, pNPP
# human tenascin C (human) [10] = molecular target: human tenascin C (human) (UniProt P24821); assay: ELISA on plates coated with tenascin C, reference BC-2
# [11] = molecular target: T2, EGF-like fragment of human tenascin; assay: Western blot
# human tenascin C (human) [12] = molecular target: human tenascin C (human) (UniProt P24821); assay: BIAcore on whole tenascin, reference biotinylated BC-2
# Sequence of human tenascin C (human) (P24821 23-2201): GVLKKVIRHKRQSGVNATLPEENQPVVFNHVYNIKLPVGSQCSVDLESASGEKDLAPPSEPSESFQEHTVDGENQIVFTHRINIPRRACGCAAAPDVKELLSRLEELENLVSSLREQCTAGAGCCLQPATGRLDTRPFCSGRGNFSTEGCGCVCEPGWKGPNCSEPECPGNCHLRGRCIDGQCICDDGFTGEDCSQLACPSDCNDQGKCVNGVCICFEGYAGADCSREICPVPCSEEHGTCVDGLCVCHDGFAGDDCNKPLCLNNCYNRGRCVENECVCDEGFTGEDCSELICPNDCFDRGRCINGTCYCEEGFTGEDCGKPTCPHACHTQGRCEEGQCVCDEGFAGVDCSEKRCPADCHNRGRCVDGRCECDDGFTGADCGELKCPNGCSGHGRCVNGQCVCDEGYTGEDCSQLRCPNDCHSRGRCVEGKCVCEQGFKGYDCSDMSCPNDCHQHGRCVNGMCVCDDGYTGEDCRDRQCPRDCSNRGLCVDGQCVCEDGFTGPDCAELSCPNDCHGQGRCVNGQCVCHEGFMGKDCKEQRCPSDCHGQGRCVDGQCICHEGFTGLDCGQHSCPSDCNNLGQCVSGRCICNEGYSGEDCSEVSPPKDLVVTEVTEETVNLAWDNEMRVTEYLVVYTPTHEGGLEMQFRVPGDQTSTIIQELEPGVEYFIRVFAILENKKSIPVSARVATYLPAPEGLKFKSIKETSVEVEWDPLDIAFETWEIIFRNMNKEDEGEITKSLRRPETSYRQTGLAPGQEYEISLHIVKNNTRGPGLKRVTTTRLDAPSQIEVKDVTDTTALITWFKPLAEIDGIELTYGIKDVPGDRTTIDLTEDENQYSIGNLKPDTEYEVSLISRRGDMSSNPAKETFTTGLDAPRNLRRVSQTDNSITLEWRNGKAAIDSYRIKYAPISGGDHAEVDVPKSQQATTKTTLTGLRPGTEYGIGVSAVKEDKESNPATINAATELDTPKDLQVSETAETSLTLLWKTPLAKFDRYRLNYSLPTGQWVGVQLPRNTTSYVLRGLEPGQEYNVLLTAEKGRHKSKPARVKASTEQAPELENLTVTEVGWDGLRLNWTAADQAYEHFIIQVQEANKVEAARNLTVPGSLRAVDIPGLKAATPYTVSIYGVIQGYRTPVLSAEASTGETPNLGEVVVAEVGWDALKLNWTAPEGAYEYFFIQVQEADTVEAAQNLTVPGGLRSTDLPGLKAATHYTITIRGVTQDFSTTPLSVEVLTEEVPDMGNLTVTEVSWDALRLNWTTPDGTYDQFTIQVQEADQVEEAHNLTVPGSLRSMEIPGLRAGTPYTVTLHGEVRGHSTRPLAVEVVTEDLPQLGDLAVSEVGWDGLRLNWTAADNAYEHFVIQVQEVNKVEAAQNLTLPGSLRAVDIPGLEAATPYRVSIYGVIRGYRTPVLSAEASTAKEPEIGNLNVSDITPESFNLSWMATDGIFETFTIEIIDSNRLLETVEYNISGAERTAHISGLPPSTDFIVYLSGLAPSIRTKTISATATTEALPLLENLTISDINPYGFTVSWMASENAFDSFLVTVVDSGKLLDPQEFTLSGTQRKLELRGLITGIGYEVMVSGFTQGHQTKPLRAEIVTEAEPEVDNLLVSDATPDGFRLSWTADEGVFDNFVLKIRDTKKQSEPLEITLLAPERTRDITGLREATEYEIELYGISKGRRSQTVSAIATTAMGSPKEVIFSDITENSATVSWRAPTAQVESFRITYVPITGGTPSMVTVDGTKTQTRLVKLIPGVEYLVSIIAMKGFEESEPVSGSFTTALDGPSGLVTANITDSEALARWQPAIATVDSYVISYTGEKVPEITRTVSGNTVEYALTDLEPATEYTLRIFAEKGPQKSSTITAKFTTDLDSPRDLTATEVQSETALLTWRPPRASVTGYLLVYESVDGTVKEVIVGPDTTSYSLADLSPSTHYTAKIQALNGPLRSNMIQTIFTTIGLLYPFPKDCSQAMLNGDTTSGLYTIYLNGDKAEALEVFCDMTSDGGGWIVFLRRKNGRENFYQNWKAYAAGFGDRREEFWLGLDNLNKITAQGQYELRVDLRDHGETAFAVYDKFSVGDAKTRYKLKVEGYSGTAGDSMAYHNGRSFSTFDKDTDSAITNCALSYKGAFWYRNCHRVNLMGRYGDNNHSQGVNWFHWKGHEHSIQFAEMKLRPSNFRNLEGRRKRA
molecule,measurement,setting,value
biotinylated BC-2 (antibody),residual immunoreactivity,human tenascin C (human) [1],88%
same,residual immunoreactivity,[2],83%
same,Kd,human tenascin C (human) [3],371 nM
anti-tenascin monoclonal antibody BC-2,Kd,human tenascin C (human) [4],254 nM
same,Kd,[5],73.9 nM
B1,IC50 (read off the curve),[6],~0.03 µg/mL
same,fold less antibody than BC-2 needed to obtain 1.0 OD,[7],~10 fold
same,% inhibition of BC-2 binding,human tenascin C (human) [8],40%
same,Kd,human tenascin C (human) [4],0.977 nM
same,EC50 (read off the curve),human tenascin C (human) [9],0.02 µg/mL
same,fold less antibody than BC-2 needed to obtain 1.0 OD,human tenascin C (human) [10],13 fold
same,binding result,[11],no binding
same,Kd,[5],0.972 nM
same,koff,[5],0.000319 s⁻¹
same,kon,[5],328000 M⁻¹ s⁻¹
B2,residual immunoreactivity,human tenascin C (human) [1],76%
same,fold greater affinity than biotinylated BC-2,human tenascin C (human) [12],100 fold
same,Kd,human tenascin C (human) [3],2.88 nM
